Laboratory results published in publication PMC4810246.

Key:
[1] = biological target: porcine aminopeptidase N (pAPN) ectodomain with a C-terminal His6 tag (UniProt P15145); assay: ELISA; details: read off a plot
[2] = biological target: the three mutant proteins; assay: ELISA; plates coated overnight at 4 °C with IgG4 Fc-tagged S1 fragments or mutants (60 μg/mL or 120 to 1.875 μg/mL), blocked with BSA, incubated with His6-tagged pAPN (50 μg/mL) 2 h at RT; anti-His detection
[3] = S protein 1.875 μg/mL, parent: est. 0.25
[4] = S protein 3.75 μg/mL, parent: est. 0.42
[5] = S protein 7.5 μg/mL, parent: est. 0.70
[6] = S protein 15 μg/mL, parent: est. 1.2
[7] = S protein 30 μg/mL, parent: est. 1.7
[8] = S protein 60 μg/mL, parent: est. 2.0
[9] = S proteins coated at 60 μg/mL, pAPN in solution, parent: est. 1.9

Molecule	response [1, 3]	response [1, 4]	response [1, 5]	response [1, 6]	response [1, 7]	response [1, 8]	response [1, 9]	percent reduction of receptor-binding activity against wild-type S477–629 [2] [%]
PEDV CHGD-01 S1 C-terminus fragment S477-629 with a C-terminal IgG4 Fc tag residues 521-534 replaced by HCoV-NL63 residues 493-506 (RBM1-1)	0.13 Abs (630 nm)	0.25 Abs (630 nm)	0.6 Abs (630 nm)	0.98 Abs (630 nm)	1 Abs (630 nm)	1.1 Abs (630 nm)	1.2 Abs (630 nm)	–
PEDV CHGD-01 S1 C-terminus fragment S477-629 with a C-terminal IgG4 Fc tag residues 556-563 replaced by HCoV-NL63 residues 534-541 (RBM2-1)	0.15 Abs (630 nm)	0.32 Abs (630 nm)	0.7 Abs (630 nm)	0.88 Abs (630 nm)	0.93 Abs (630 nm)	1.1 Abs (630 nm)	1.2 Abs (630 nm)	–
PEDV CHGD-01 S1 C-terminus fragment S477-629 with a C-terminal IgG4 Fc tag residues 607-615 replaced by SGSGS (RBM3-2)	0.05 Abs (630 nm)	0.06 Abs (630 nm)	0.13 Abs (630 nm)	0.34 Abs (630 nm)	0.8 Abs (630 nm)	1.2 Abs (630 nm)	1.4 Abs (630 nm)	–
porcine aminopeptidase N (pAPN) ectodomain with a C-terminal His6 tag (receptor) QSKPWNRYRLPTTLLPDSYNVTLRPYLTPNADGLYIFKGKSIVRLLCQEPTDVIIIHSKKLNYTTQGHMVVLRGVGDSQVPEIDRTELVELTEYLVVHLKGSLQPGHMYEMESEFQGELADDLAGFYRSEYMEGNVKKVLATTQMQSTDARKSFPCFDEPAMKATFNITLIHPNNLTALSNMPPKGSSTPLAEDPNWSVTEFETTPVMSTYLLAYIVSEFQSVNETAQNGVLIRIWARPNAIAEGHGMYALNVTGPILNFFANHYNTSYPLPKSDQIALPDFNAGAMENWGLVTYRENALLFDPQSSSISNKERVVTVIAHELAHQWFGNLVTLAWWNDLWLNEGFASYVEYLGADHAEPTWNLKDLIVPGDVYRVMAVDALASSHPLTTPAEEVNTPAQISEMFDSISYSKGASVIRMLSNFLTEDLFKEGLASYLHAFAYQNTTYLDLWEHLQKAVDAQTSIRLPDTVRAIMDRWTLQMGFPVITVDTKTGNISQKHFLLDSESNVTRSSAFDYLWIVPISSIKNGVMQDHYWLRDVSQAQNDLFKTASDDWVLLNVNVTGYFQVNYDEDNWRMIQHQLQTNLSVIPVINRAQVIYDSFNLATAHMVPVTLALDNTLFLNGEKEYMPWQAALSSLSYFSLMFDRSEVYGPMKKYLRKQVEPLFQHFETLTKNWTERPENLMDQYSEINAISTACSNGLPQCENLAKTLFDQWMSDPENNPIHPNLRSTIYCNAIAQGGQDQWDFAWGQLQQAQLVNEADKLRSALACSNEVWLLNRYLGYTLNPDLIRKQDATSTINSIASNVIGQPLAWDFVQSNWKKLFQDYGGGSFSFSNLIQGVTRRFSSEFELQQLEQFKKNNMDVGFGSGTRALEQALEKTKANIKWVKENKEVVLNWFIEHS	–	–	–	–	–	–	–	30 to 40
